The assay addresses DS protein (Dengue-HBsAg fusion: EDIII of DENV-1, -3, -4 and -2 joined in tandem to the HBV S antigen) (dengue virus 1 (West Pac-74) | dengue virus 3 (H87/56) | dengue virus 4 (H241-P) | dengue virus 2 (PR159-S1/69) | hepatitis B virus (adw serotype)). Briefly: densitometry of a Western blot of the purified VLPs; Western blot of purified DSV4 developed with anti-S mAb 5S; ratio from the peak areas of DS, S and S dimer (ImageJ).

Here are results for one substance from article PMC5774828.

As usually defined, the stoichiometry N is a count of units in the complex or per binding partner.

Consider “Hepatitis B virus surface (S) antigen, unfused (natural protein)”, for which the stoichiometry N came to 4 S per DS.
